Measured values reported in patent publication US20120064001A1.

Assays:
PlGF = experiment: indirect ELISA on coated growth factor; 2C3 at 1.0 ug/ml
VEGF-B = experiment: as above
VEGF-C = experiment: as above
VEGF-D = experiment: as above
human VEGF-A (human) [1] = target: human VEGF-A (human) (UniProt P15692); experiment: as above
[2] = target: mouse VEGF (isoform not given) (mouse) (UniProt Q00731); experiment: as above
human VEGF-A (human) [3] = target: human VEGF-A (human) (UniProt P15692); experiment: SPR (Biacore T100); IgG over 100 RU human VEGF-A on a CM5 chip; 1:1 fit; 25°C
human VEGF-A (human) [4] = target: human VEGF-A (human) (UniProt P15692); experiment: SPR (Biacore T100); IgG over 100 RU human VEGF-A on a CM5 chip; 1:1 fit; 37°C
[5] = target: recombinant Mouse VEGF164 (mouse) (UniProt Q00731); experiment: SPR (Biacore T100); monomeric scFv over 1000 RU mouse VEGF164 on a CM5 chip; 1:1 fit

human VEGF-A (human), sequence (P15692 other isoform, or with tags, fused parts or gaps limits assumed): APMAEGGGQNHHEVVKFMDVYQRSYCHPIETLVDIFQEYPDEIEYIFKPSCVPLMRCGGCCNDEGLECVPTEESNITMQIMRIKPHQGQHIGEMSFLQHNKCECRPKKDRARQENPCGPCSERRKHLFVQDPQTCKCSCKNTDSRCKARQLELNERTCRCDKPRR
mouse VEGF (isoform not given) (mouse), sequence (Q00731 other isoform, or with tags, fused parts or gaps limits assumed): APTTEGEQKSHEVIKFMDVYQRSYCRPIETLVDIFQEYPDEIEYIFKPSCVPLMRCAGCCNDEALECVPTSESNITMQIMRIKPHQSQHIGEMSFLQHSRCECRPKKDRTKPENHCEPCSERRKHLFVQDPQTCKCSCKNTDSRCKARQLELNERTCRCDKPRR

Substance | mean absorbance (absorbance at 450 nM) (PlGF) | mean absorbance (absorbance at 450 nM) (VEGF-B) | mean absorbance (absorbance at 450 nM) (VEGF-C) | mean absorbance (absorbance at 450 nM) (VEGF-D) | mean absorbance (absorbance at 450 nM) (human VEGF-A (human) [1]) | mean absorbance (absorbance at 450 nM) [2] | Kd (human VEGF-A (human) [3]) [µM] | Kd (human VEGF-A (human) [4]) [µM] | Kd [5] [µM]
murine 2C3 anti-VEGF antibody (IgG) | 0.1 | 0.09 | 0.09 | 0.12 | 3.07 | 0.09 | 0.0124 | 0.313 | –
EJ173/112-C11 (r84/PGN311) scFv | – | – | – | – | – | – | – | – | 0.01
